Test results reported in US20200371101A1.
Where two headings read alike, the source gives them in different places. One block for each binder: values may come before it. Bridge positions count the residues as written; N and C are the ends. Square brackets hold non-standard residues; d marks the D form. Ends that are not written are not given here. Az4 = not defined here

Columns and labels:
[1] = target: His-tagged IDO1 human recombinant protein (71182, BPS Biosciences) (human) (UniProt P14902); assay: ELISA: biotin-PEG3 macrocycle on NeutrAvidin plate, His-tagged human IDO1 titrated, AP-conjugated anti-6XHis antibody, fluorescence
[2] = target: His-tagged IDO1 human recombinant protein (71182, BPS Biosciences) (human) (UniProt P14902); assay: ELISA
[3] = target: His-tagged IDO1 human recombinant protein (71182, BPS Biosciences) (human) (UniProt P14902); assay: sandwich ELISA: biotinylated macrocycle on NeutrAvidin plate, His-tagged IDO1 titrated, anti-6XHis-AP detection
[4] = target: His-tagged IDO1 human recombinant protein (71182, BPS Biosciences) (human) (UniProt P14902); assay: cell-based or functional assay
[5] = target: His-tagged IDO1 human recombinant protein (71182, BPS Biosciences) (human) (UniProt P14902); assay: ELISA binding assay; small molecule masked as its oxadiazolone (protected)
[6] = target: His-tagged IDO1 human recombinant protein (71182, BPS Biosciences) (human) (UniProt P14902); assay: ELISA binding assay
[7] = target: His-tagged IDO1 human recombinant protein (71182, BPS Biosciences) (human) (UniProt P14902); assay: binding affinity, assay not named
[8] = target: His-tagged IDO1 human recombinant protein (71182, BPS Biosciences) (human) (UniProt P14902); assay: cell-based or functional assay; remark: listed apart in the source
[9] = target: His-tagged IDO1 human recombinant protein (71182, BPS Biosciences) (human) (UniProt P14902); assay: ELISA binding assay; deprotected small molecule (hydroxyamidine free)
[10] = target: His-tagged IDO1 human recombinant protein (71182, BPS Biosciences) (human) (UniProt P14902); assay: binding analysis, method not named

His-tagged IDO1 human recombinant protein (71182, BPS Biosciences) (human), sequence (P14902 2-403 limits assumed): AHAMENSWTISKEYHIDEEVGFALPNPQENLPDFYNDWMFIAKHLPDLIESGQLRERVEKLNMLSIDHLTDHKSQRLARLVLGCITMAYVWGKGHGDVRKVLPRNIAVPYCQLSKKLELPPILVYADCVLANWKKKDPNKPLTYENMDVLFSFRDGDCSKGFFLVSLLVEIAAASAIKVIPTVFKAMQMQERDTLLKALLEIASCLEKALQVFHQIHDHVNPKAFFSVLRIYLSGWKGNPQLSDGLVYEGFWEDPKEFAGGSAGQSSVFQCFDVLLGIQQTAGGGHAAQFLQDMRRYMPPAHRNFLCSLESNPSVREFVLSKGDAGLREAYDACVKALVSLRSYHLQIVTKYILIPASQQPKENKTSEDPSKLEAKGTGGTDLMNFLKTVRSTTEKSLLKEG

- EC50 [1]: 25 nM
- EC50 [2]: 25 nM
- EC50 [3]: 25 nM
B1: biotin-PEG3-Cy(wyray) (peptide)
peptide: WYRAY
modifications: all D-amino acids; ring closed by triazole between flanking N-terminal Pra and C-terminal Az4; N-terminal biotin-PEG3

- EC50 [1]: 79 nM
B2: Biotin-PEG3-Cy(wray) (peptide)
peptide: WRAY
modifications: all D-amino acids; ring closed by triazole between flanking N-terminal Pra and C-terminal Az4; N-terminal biotin-PEG3

- EC50 [1]: 103 nM
B4: Biotin-PEG3-Cy(ayray) (peptide)
peptide: AYRAY
modifications: all D-amino acids; ring closed by triazole between flanking N-terminal Pra and C-terminal Az4; N-terminal biotin-PEG3

- EC50 [2]: 45 nM
- EC50 [10]: 45 nM
B7: wyvay macrocycle (peptide)
peptide: [dW][dY][dV][dA][dY]
modifications: triazole (positions not given here); also: ring closed by flanking Pra and Az4, not in chain

- EC50 [1]: 98 nM
B8: Biotin-PEG3-Cy(waray) (peptide)
peptide: WARAY
modifications: all D-amino acids; ring closed by triazole between flanking N-terminal Pra and C-terminal Az4; N-terminal biotin-PEG3

- EC50 [1]: 18 nM
B11: Biotin-PEG3-Cy(wyry) (peptide)
peptide: WYRY
modifications: all D-amino acids; ring closed by triazole between flanking N-terminal Pra and C-terminal Az4; N-terminal biotin-PEG3

Further lines, the binder ahead of its results:

B3: Protected-Inh-PEG8-wyvay (peptide)
peptide: [dW][dY][dV][dA][dY]-Az4
modifications: triazole N-C; not fully specified (N-terminus); printed as Protected-Inh-PEG8-wyvay; reading uncertain; also: Inh hydroxyamidine masked as oxadiazolone
- IC50, IDO1 inhibition assay [4]: > 10000 nM
- EC50 [5]: 92 nM
- fold decrease in binding affinity (EC50) against the deprotected heterobiligand [6]: 3 fold

B5: Deprotected-Inh-PEG8-wyvay (peptide)
peptide: [dW][dY][dV][dA][dY]-Az4
modifications: triazole N-C; not fully specified (N-terminus); reading uncertain; also: small molecule Inh joined via PEG8 linker, attachment point not given here
- EC50 [7]: 36 nM
- IC50, IDO1 inhibition assay [4]: 407 nM
- IC50, IDO1 inhibition assay [8]: 350 nM
- Inhibition Recombinant IDO1 IC50 [8]: 407 nM
- EC50 [9]: 34 nM

B6: Biotin-PEG3-Cy(wyaay) (peptide)
peptide: WYAAY
modifications: all D-amino acids; ring closed by triazole between flanking N-terminal Pra and C-terminal Az4; N-terminal biotin-PEG3
- EC50 [1]: 65 nM

B9: biotin-PEG3-Cy(rffyl) (peptide)
peptide: RFFYL
modifications: all D-amino acids; ring closed by triazole between flanking N-terminal Pra and C-terminal Az4; N-terminal biotin-PEG3
- EC50 [3]: 125 nM

B10: Biotin-PEG3-Cy(yray) (peptide)
peptide: YRAY
modifications: all D-amino acids; ring closed by triazole between flanking N-terminal Pra and C-terminal Az4; N-terminal biotin-PEG3
- EC50 [1]: 113 nM
